According to publication PMC9700037:

Biological target: His6-tev-DPP9 (UniProt Q86TI2)
Experiment: SEC-MALS; co-eluting SEC fractions of FIIND, DPP9 and free UPA co-expressed in Sf9 and co-purified; 0.5-1.0 mg/ml, Superose 6 increase (10/300) GL, buffer A without glycerol

Chain of His6-tev-DPP9 (Q86TI2 whole entry): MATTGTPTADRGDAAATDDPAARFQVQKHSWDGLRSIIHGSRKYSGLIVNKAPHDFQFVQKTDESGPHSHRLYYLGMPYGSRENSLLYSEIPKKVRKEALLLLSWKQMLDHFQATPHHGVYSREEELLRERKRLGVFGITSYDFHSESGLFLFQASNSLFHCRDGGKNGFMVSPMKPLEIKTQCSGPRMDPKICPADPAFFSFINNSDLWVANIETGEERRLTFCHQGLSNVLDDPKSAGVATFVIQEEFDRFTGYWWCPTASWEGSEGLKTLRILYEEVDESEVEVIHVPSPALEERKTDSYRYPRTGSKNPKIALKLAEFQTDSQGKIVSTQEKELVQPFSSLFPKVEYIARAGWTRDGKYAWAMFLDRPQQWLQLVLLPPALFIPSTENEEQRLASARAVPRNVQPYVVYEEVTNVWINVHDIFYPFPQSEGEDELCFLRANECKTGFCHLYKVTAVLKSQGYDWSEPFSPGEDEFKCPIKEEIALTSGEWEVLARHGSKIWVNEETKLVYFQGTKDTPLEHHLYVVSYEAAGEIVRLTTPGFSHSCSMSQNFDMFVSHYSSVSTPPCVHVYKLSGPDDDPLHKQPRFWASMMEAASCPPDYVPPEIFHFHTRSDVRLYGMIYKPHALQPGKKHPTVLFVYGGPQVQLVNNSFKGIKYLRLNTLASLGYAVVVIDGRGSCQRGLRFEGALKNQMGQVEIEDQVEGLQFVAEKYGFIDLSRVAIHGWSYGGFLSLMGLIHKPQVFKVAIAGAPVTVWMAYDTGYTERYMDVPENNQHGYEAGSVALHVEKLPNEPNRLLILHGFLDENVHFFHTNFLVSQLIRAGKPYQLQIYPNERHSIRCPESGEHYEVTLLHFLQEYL
Chain of free UPA domain (from the SUMO-UPA construct) (domain or fragment) (Q9C000 whole entry, the tested form may be a part): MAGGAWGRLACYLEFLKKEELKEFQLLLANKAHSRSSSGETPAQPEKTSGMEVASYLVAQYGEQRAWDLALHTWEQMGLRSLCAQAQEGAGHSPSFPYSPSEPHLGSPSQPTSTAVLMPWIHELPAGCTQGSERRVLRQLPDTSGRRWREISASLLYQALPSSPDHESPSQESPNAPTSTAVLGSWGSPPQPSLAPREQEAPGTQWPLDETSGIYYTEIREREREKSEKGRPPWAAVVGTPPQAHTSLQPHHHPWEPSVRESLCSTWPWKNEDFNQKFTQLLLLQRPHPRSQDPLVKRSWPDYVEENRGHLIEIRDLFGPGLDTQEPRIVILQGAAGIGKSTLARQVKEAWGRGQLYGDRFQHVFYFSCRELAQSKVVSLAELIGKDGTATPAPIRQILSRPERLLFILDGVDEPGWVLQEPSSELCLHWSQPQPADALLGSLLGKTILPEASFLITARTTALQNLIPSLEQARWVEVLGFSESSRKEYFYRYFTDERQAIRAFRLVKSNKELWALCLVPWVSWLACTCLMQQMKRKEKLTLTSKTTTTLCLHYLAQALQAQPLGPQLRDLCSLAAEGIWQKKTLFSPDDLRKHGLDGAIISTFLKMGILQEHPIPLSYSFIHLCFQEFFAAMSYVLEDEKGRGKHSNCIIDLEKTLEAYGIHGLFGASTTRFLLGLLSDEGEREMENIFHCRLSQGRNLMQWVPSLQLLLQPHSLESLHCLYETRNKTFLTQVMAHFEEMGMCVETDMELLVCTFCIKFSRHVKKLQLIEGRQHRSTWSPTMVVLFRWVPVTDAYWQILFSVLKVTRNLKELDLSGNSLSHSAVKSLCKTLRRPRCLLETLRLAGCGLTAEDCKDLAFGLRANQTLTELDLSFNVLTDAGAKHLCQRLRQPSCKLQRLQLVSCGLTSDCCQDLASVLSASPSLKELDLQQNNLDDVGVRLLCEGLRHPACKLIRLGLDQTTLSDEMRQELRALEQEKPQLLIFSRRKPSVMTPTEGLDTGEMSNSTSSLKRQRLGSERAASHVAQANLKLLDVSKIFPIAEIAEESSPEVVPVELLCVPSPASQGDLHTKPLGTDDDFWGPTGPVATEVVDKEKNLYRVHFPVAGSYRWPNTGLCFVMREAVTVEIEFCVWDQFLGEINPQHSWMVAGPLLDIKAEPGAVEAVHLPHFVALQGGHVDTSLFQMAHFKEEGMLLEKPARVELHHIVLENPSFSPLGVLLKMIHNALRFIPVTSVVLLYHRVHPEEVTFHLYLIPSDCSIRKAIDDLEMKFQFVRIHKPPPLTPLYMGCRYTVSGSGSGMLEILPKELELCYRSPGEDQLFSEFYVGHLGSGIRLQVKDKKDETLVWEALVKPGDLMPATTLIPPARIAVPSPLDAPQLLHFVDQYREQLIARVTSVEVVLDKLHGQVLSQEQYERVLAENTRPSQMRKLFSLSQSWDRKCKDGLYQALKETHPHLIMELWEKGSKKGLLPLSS

- stoichiometry N (UPA per DPP9 dimer): 1
Substance: free UPA domain (from the SUMO-UPA construct) (domain or fragment)
